Results on two molecules are retold here after US20220194997A1 (published 2022).

Holding throughout (assay): MST
In assay [1] the target is human wild-type α-synuclein (full-length) (UniProt P37840 1-140).
The target in assay [2] is αSyn-SIM1(5A).
Assay [3] addresses αSyn-SIM2(5A).
Assay [4] addresses α-Synuclein-V40R/V49R.
Assay [5] has as its target T1, αsyn(59-66).
T1 peptide: TKEQVTNV

In assay [6] the target is T2, αsyn(48-60).
T2 peptide: VVHGVATVAEKTK

In assay [7] the target is T3, αsyn(35-45).
T3 peptide: EGVLYVGSKTK

The target in assay [8] is T4, αsyn(74-84).
T4 peptide: VTAVAQKTVEG

Assay [9] addresses T5, αsyn(87-95).
T5 peptide: SIAAATGFV

Where no end group is shown, it is not given here.

Take SSEIHFKVKMTTHLKKLKESYCQRQ [SUMO1(31-55)]: the Kd in [1] stood at 2.32 µM.

Turning to DKKEGEYIKLKVIGQDSSEIHFKVKMTTHLKKLKESYCQRQ (also: Alexa Fluor 647 NHS ester on amines when used as MST target) [SUMO1(15-55)], the Kd in [2] stood at 19.6 µM; in assay [3], 0.86 µM; in assay [4], 88.3 µM; in [5], 108 µM; in assay [6], 0.87 µM; in [7] it was 1.19 µM. In addition, the dissociation constant (Kd) amounted to 195 µM in [8] and 364 µM in [9].
